# Results published in paper PMC5364132, “Anti-Biofilm Activity of a Self-Aggregating Peptide against Streptococcus mutans” (Frontiers in Microbiology, 2017).
# Molecular target: the molecule itself
# Assay: FTIR spectroscopy; peptides at 1 and 0.1 mg/ml in PBS, 8 μl dried as thin films on the ATR surface; spectra 1800-1500 cm^-1; peaks at 1621 and 1695 cm^-1 read as antiparallel β-sheet assembly
protein,measurement,value
"PARKARAATAATAATAATAATAAT (24-amino acid synthetic peptide designed with repeated motifs of the Ixodes tick antifreeze glycoprotein (IAFGP); Not the streptococcal adhesin P1 (AgI/II, PAc); also called antivirulence peptide P1; source: synthetic peptide (Genscript, >80% purity)) [synthetic peptide P1]",binding result,binds
